The assay concerns the target T1, fibrin (Mus musculus, UniProt E9PV24+Q8K0E8+Q8VCM7).
T1 construct: from tissue; host or cells: citrated mouse plasma, diluted tenfold
T1 sequence (Q8VCM7 26-436): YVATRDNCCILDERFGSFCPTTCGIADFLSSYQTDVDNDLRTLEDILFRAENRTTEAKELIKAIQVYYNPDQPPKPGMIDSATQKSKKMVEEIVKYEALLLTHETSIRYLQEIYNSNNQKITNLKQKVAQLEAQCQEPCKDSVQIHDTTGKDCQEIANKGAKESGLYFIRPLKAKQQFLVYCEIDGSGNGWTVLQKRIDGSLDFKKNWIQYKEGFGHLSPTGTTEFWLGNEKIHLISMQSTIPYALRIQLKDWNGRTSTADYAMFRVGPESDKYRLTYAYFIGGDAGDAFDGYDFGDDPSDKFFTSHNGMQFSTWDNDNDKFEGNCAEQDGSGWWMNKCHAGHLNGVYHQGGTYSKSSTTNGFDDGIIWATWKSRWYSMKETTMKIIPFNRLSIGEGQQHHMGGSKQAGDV
T1 sequence (E9PV24 37-789 limits assumed): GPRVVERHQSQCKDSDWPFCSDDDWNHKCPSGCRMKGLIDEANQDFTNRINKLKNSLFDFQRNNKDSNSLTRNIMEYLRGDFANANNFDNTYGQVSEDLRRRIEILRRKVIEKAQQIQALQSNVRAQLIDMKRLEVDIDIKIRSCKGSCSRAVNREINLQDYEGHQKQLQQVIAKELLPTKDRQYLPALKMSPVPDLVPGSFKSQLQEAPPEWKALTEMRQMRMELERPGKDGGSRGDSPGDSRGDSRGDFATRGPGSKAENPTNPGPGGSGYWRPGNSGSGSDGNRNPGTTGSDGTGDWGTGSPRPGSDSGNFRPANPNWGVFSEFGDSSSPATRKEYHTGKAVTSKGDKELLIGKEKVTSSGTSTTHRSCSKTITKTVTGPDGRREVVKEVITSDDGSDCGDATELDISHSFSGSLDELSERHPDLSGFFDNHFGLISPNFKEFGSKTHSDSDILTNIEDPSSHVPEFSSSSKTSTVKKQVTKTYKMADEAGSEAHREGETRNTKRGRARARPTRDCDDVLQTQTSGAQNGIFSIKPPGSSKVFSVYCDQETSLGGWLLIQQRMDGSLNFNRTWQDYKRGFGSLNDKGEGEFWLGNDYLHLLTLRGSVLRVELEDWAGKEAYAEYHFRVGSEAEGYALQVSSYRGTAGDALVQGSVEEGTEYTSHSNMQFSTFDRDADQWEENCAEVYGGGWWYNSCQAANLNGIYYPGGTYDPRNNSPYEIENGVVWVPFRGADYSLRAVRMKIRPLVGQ
T1 sequence (Q8K0E8 35-481 limits assumed): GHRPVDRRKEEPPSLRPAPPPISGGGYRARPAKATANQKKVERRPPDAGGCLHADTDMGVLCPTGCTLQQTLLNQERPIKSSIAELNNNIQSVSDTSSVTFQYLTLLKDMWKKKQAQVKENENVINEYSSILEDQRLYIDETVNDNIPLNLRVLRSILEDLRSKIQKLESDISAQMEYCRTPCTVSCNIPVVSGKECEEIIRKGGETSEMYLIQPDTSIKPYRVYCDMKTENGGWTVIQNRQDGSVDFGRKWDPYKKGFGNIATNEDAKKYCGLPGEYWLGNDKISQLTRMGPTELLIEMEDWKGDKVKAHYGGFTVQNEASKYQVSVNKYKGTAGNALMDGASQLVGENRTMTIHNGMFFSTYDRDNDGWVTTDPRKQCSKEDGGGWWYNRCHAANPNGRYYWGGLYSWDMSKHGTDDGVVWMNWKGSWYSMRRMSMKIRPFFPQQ
Description: In vitro fibrin polymerization turbidity assay in plasma. It is filed as biochemical. Particulars: citrate plasma, bovine thrombin 0.2 U/ml, OD350. As for the experimental part: Hematological Analyses. Citrated plasma was prepared from mice administered intranasally 30 μg or 90 μg of γ^377-395 peptide or saline control daily for seven days. Plasma clotting times were measured by combining 10 μl of citrated plasma with 10 μl of 2 U/ml bovine thrombin (Enzyme Research Laboratories, South Bend, Ind., USA) and 40 mM. CaCl2 in a weigh boatfloating in a 37° C. water bath. Time to clot was determined by mixing with a toothpick. Plasma thrombin times were established as described previously (15). Fibrin polymerization was evaluated by standard turbidity assays using plasma. Briefly, citrate plasma (diluted tenfold in 20 mM HEPES, pH 7.4, containing 0.15 M NaCl and 5 mM-amino caproic acid) was combined with bovine thrombin (final concentration 0.2 U/ml; Enzyme Research Laboratories, South Bend, Ind., USA), and Ca^2+ (10 mM), and OD350 measurements were taken every 30 seconds.

“Also recorded” adds a separate entry of the source.

For “tyr-ser-met-lys-lys-thr-thr-met-lys-ile-ile-pro-phe-asn-arg-leu-thr-ile-gly (YSMKKTTMKIIPFNRLTIG) (listed as Homo sapiens) [γ^377-395 peptide]”, the “effect on fibrin polymerization” value is “did not alter; also recorded: had no effect”.
